This is an account of results in PMC5225419.

In this test the target is full length (FL) human recombinant TPPP/p25 (Tubulin Polymerization Promoting Protein) (human) (UniProt O94811). In words: SDS-PAGE without reducing agent; 5 ug protein from the 200 uM stock solution loaded directly onto the gel in the absence of DTE; disulphide-stabilized dimers.

The stoichiometry N is the number of molecules, sites or subunits per partner or assembly. For “full length (FL) human recombinant TPPP/p25 (Tubulin Polymerization Promoting Protein) (from UniProt O94811 1-219) (natural protein; other documents disagree on this pair)”, the stoichiometry N was found to be 2.
